Experimental data taken from paper PMC12719470 (Frontiers in Immunology, 2025).
Positions count from the first letter of the chain named.

B1: TNFR2-His protein (receptor, UniProt P20333 23-461, looked up)
chain: APEPGSTCRLREYYDQTAQMCCSKCSPGQHAKVFCTKTSDTVCDSCEDSTYTQLWNWVPECLSCGSRCSSDQVETQACTREQNRICTCRPGWYCALSKQEGCRLCAPLRKCRPGFGVARPGTETSDVVCKPCAPGTFSNTTSSTDICRPHQICNVVAIPGNASMDAVCTSTSP
notes: TNFR2-His protein used as analyte in BLI; also called histidine-tagged TNFR2
B2: Nanobody-161 IgG1 (VHH)
VHH: EVQLVESGGGLVQPGGSLRLSCAASGSIRFINDMGWYRQAPGKGLELVAAIGRGGGSTNYADSVKGRFTISRDNAKNTLYLQMNSLRAEDTAVYYCHAEISQLGYAFRDYWGQGTLVTVSS
notes: also called WT; source: ExpiCHO, purified (MabSelect SuRe LX)
B3: Nanobody-161 IgG1 R53A (VHH)
VHH: B2 VHH with R53A
notes: as the VHH of Wm1, with the stated change
B4: Nanobody-161 IgG1 R29A (VHH)
VHH: B2 VHH with R29A
notes: as for B3
B5: Nanobody-161 IgG1 R108A (VHH)
VHH: B2 VHH with R108A
notes: as for B3
B6: Nanobody-161 IgG1 S101A (VHH)
VHH: B2 VHH with S101A
notes: as for B3
B7: Nanobody-161 IgG1 Q102A (VHH)
VHH: B2 VHH with Q102A
notes: as for B3
B8: Nanobody-161 IgG1 L103G (VHH)
VHH: B2 VHH with L103G
notes: as for B3
B9: Nanobody-161 IgG1 F30G (VHH)
VHH: B2 VHH with F30G
notes: as for B3

Assays:
Conditions in all cases: both partners purified
Nanobody-161 IgG1 F107G = molecular target: T1, Nanobody-161 IgG1 F107G; experiment: BLI; Gator system, 25 °C; 30 nM Nanobody-161 IgG1 or mutant immobilised on Protein A biosensors for 120 s; 4800 nM-300 nM TNFR2-His in Q Buffer (PBS, 0.02% Tween 20, 0.2% BSA); association 120 s, dissociation 180 s; global 1:1 Langmuir fit
T1 construct: as the chain of m1 with the stated change

Nanobody-161 IgG1 Q102A = molecular target: T2, Nanobody-161 IgG1 Q102A; experiment: as above
T2 construct: as the chain of m1 with the stated change

Nanobody-161 IgG1 R53A = molecular target: T3, Nanobody-161 IgG1 R53A; experiment: as above
T3 construct: as the chain of m1 with the stated change

Nanobody-161 IgG1 R29A = molecular target: T4, Nanobody-161 IgG1 R29A; experiment: as above
T4 construct: as the chain of m1 with the stated change

Nanobody-161 IgG1 = molecular target: T5, Nanobody-161 IgG1; experiment: as above
T5 construct: CDR1 26-35, CDR2 50-59, CDR3 99-110); 78 kDa, called bivalent in the discussion; The methods nonetheless speak of heavy-chain and light-chain plasmids; source: ExpiCHO, transfected, purified from conditioned medium (MabSelect SuRe LX)

Nanobody-161 IgG1 R108A = molecular target: T6, Nanobody-161 IgG1 R108A; experiment: as above
T6 construct: as the chain of m1 with the stated change

TNFR2-His protein = molecular target: T7, TNFR2-His protein (Homo sapiens, UniProt P20333); experiment: BLI; 30 nM Nanobody-161 IgG1 or mutant immobilised on Protein A biosensors (Gator); 4800 nM-300 nM TNFR2-His in Q Buffer (PBS, 0.02% Tween 20, 0.2% BSA); 25 °C; association 120 s, dissociation 180 s; global 1:1 Langmuir fit
T7 construct: Tumor necrosis factor receptor 2 (TNFR2), human; The BLI methods say only 'TNFR2-His protein'; It may be the E. coli ectodomain (residues 33-205, purified on a nickel column) or a bought protein (Sino Biological 10417-H03H); neither the source nor the species is named for this experiment; also called histidine-tagged TNFR2
T7 sequence (P20333 23-461): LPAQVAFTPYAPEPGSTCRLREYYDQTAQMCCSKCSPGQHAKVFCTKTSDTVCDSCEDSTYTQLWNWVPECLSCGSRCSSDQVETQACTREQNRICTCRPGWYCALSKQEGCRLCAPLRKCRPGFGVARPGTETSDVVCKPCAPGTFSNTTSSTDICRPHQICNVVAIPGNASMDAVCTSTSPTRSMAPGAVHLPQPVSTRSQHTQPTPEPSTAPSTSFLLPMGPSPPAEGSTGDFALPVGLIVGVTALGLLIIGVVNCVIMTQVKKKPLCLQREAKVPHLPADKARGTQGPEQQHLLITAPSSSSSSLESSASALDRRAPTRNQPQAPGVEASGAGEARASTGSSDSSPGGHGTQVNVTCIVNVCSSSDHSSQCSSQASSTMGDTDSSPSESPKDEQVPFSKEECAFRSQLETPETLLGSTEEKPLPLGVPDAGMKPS

Row | binding result (Nanobody-161 IgG1 F107G) | binding result (Nanobody-161 IgG1 Q102A) | binding result (Nanobody-161 IgG1 R53A) | binding result (Nanobody-161 IgG1 R29A) | binding result (Nanobody-161 IgG1) | binding result (Nanobody-161 IgG1 R108A) | Kd (TNFR2-His protein) | koff (TNFR2-His protein) | kon (TNFR2-His protein) | Binder
1 | binds | binds | binds | binds | binds | binds |  |  |  | B1
2 |  |  |  |  |  |  | 81.5 nM | 0.000276 s⁻¹ | 3390 M⁻¹ s⁻¹ | B2
3 |  |  |  |  |  |  | 79.5 nM | 0.000321 s⁻¹ | 4030 M⁻¹ s⁻¹ | B3
4 |  |  |  |  |  |  | 631 nM | 0.002 s⁻¹ | 3170 M⁻¹ s⁻¹ | B4
5 |  |  |  |  |  |  | 186 nM | 0.000877 s⁻¹ | 4730 M⁻¹ s⁻¹ | B5
6 |  |  |  |  |  |  | 1720 nM | 0.00926 s⁻¹ | 5370 M⁻¹ s⁻¹ | B6
7 |  |  |  |  |  |  | 212 nM | 0.000699 s⁻¹ | 3290 M⁻¹ s⁻¹ | B7
8 |  |  |  |  |  |  | 976 nM | 0.00382 s⁻¹ | 3920 M⁻¹ s⁻¹ | B8
9 |  |  |  |  |  |  | 3780 nM | 0.0126 s⁻¹ | 3340 M⁻¹ s⁻¹ | B9
